Test results as given in patent US20260125472A1 (HEFEI TG IMMUNOPHARMA, published 2026).

B1: Cross303×PDL1 (bispecific antibody, human IgG1, kappa, L234A L235A)
scFv: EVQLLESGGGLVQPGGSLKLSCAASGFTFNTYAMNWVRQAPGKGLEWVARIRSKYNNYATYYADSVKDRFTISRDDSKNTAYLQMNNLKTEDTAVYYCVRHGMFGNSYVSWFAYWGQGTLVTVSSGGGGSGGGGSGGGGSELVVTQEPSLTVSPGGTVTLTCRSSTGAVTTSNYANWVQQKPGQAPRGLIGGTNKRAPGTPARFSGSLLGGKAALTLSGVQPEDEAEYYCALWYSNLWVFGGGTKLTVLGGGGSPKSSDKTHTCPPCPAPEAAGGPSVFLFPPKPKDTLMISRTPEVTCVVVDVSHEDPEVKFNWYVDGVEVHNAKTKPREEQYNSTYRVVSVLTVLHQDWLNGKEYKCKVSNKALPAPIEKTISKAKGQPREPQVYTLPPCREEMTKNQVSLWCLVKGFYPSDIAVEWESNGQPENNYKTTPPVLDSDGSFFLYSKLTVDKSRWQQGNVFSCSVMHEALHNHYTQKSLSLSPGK
heavy: QVQLVQSGAEVKKPGASVKVSCKASGYSFTGYYMHWVRQAPGQGLEWIGRINPYNGATTYSQNFKDRATMTVDTSISTAYMELSRLRSDDTAVYYCVPTGMGYFLMDYWGQGTLVTVSSASTKGPSVFPLAPSSKSTSGGTAALGCLVKDYFPEPVTVSWNSGALTSGVHTFPAVLQSSGLYSLSSVVTVPSSSLGTQTYICNVNHKPSNTKVDKKVEPKSCDKTHTCPPCPAPEAAGGPSVFLFPPKPKDTLMISRTPEVTCVVVDVSHEDPEVKFNWYVDGVEVHNAKTKPREEQYNSTYRVVSVLTVLHQDWLNGKEYKCKVSNKALPAPIEKTISKAKGQPREPQVCTLPPSREEMTKNQVSLSCAVKGFYPSDIAVEWESNGQPENNYKTTPPVLDSDGSFFLVSKLTVDKSRWQQGNVFSCSVMHEALHNHYTQKSLSLSPGK
light: DIQLTQSPSFLSASVGDRVTITCKASQDVGSAVVWYQQKPGKAPKLLIYWASTRHTGVPSRFSGSGSGTEFTLTISSLQPEDFATYFCQQFTSYPTFGQGTKLEIKRTVAAPSVFIFPPSDEQLKSGTASVVCLLNNFYPREAKVQWKVDNALQSGNSQESVTEQDSKDSTYSLSSTLTLSKADYEKHKVYACEVTHQGLSSPVTKSFNRGEC
B2: Cross307×PDL1 (bispecific antibody, human IgG1, kappa, L234A L235A)
scFv: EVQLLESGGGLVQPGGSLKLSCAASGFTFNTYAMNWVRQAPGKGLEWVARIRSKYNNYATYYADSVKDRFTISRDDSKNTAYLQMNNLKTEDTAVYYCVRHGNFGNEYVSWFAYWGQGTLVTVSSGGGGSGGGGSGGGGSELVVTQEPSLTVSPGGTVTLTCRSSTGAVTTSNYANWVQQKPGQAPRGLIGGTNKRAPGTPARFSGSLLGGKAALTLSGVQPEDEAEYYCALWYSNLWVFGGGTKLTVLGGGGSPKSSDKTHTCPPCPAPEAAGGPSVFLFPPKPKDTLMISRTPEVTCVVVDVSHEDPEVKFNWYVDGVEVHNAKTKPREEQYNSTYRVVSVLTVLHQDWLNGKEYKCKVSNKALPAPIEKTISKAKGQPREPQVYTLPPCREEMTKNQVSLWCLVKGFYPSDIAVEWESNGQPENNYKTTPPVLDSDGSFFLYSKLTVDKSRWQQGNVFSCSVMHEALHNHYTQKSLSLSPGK
heavy: QVQLVQSGAEVKKPGASVKVSCKASGYSFTGYYMHWVRQAPGQGLEWIGRINPYNGATTYSQNFKDRATMTVDTSISTAYMELSRLRSDDTAVYYCVPTGMGYFLMDYWGQGTLVTVSSASTKGPSVFPLAPSSKSTSGGTAALGCLVKDYFPEPVTVSWNSGALTSGVHTFPAVLQSSGLYSLSSVVTVPSSSLGTQTYICNVNHKPSNTKVDKKVEPKSCDKTHTCPPCPAPEAAGGPSVFLFPPKPKDTLMISRTPEVTCVVVDVSHEDPEVKFNWYVDGVEVHNAKTKPREEQYNSTYRVVSVLTVLHQDWLNGKEYKCKVSNKALPAPIEKTISKAKGQPREPQVCTLPPSREEMTKNQVSLSCAVKGFYPSDIAVEWESNGQPENNYKTTPPVLDSDGSFFLVSKLTVDKSRWQQGNVFSCSVMHEALHNHYTQKSLSLSPGK
light: DIQLTQSPSFLSASVGDRVTITCKASQDVGSAVVWYQQKPGKAPKLLIYWASTRHTGVPSRFSGSGSGTEFTLTISSLQPEDFATYFCQQFTSYPTFGQGTKLEIKRTVAAPSVFIFPPSDEQLKSGTASVVCLLNNFYPREAKVQWKVDNALQSGNSQESVTEQDSKDSTYSLSSTLTLSKADYEKHKVYACEVTHQGLSSPVTKSFNRGEC
B3: Cross312×PDL1 (bispecific antibody, human IgG1, kappa, L234A L235A)
scFv: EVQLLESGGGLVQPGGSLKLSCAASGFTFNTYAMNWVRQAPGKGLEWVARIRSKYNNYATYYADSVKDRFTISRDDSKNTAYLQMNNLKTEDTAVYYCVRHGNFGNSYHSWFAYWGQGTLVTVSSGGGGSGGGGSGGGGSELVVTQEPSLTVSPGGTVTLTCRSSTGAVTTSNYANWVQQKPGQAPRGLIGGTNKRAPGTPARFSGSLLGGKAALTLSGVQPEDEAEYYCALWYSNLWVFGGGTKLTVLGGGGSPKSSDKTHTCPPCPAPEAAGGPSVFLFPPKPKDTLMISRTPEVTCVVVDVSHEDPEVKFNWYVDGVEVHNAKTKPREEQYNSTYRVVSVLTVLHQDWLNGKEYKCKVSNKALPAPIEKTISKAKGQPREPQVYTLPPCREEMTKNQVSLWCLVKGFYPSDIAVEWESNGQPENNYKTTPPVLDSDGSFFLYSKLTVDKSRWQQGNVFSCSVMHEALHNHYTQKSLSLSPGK
heavy: QVQLVQSGAEVKKPGASVKVSCKASGYSFTGYYMHWVRQAPGQGLEWIGRINPYNGATTYSQNFKDRATMTVDTSISTAYMELSRLRSDDTAVYYCVPTGMGYFLMDYWGQGTLVTVSSASTKGPSVFPLAPSSKSTSGGTAALGCLVKDYFPEPVTVSWNSGALTSGVHTFPAVLQSSGLYSLSSVVTVPSSSLGTQTYICNVNHKPSNTKVDKKVEPKSCDKTHTCPPCPAPEAAGGPSVFLFPPKPKDTLMISRTPEVTCVVVDVSHEDPEVKFNWYVDGVEVHNAKTKPREEQYNSTYRVVSVLTVLHQDWLNGKEYKCKVSNKALPAPIEKTISKAKGQPREPQVCTLPPSREEMTKNQVSLSCAVKGFYPSDIAVEWESNGQPENNYKTTPPVLDSDGSFFLVSKLTVDKSRWQQGNVFSCSVMHEALHNHYTQKSLSLSPGK
light: DIQLTQSPSFLSASVGDRVTITCKASQDVGSAVVWYQQKPGKAPKLLIYWASTRHTGVPSRFSGSGSGTEFTLTISSLQPEDFATYFCQQFTSYPTFGQGTKLEIKRTVAAPSVFIFPPSDEQLKSGTASVVCLLNNFYPREAKVQWKVDNALQSGNSQESVTEQDSKDSTYSLSSTLTLSKADYEKHKVYACEVTHQGLSSPVTKSFNRGEC
B4: Cross311×PDL1 (bispecific antibody, human IgG1, kappa, L234A L235A)
scFv: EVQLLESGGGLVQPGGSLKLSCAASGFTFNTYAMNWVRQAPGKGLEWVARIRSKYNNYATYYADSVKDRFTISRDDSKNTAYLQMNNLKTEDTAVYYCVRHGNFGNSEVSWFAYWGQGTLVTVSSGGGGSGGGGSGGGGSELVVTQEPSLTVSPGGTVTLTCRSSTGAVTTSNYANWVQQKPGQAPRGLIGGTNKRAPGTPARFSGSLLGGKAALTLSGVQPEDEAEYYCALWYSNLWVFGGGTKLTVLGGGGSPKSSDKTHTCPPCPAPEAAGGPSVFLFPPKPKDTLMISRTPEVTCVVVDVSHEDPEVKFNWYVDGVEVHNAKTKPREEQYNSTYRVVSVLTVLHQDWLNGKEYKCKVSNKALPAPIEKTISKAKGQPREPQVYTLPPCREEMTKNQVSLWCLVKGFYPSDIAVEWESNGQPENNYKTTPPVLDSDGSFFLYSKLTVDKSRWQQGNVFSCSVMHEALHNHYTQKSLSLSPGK
heavy: QVQLVQSGAEVKKPGASVKVSCKASGYSFTGYYMHWVRQAPGQGLEWIGRINPYNGATTYSQNFKDRATMTVDTSISTAYMELSRLRSDDTAVYYCVPTGMGYFLMDYWGQGTLVTVSSASTKGPSVFPLAPSSKSTSGGTAALGCLVKDYFPEPVTVSWNSGALTSGVHTFPAVLQSSGLYSLSSVVTVPSSSLGTQTYICNVNHKPSNTKVDKKVEPKSCDKTHTCPPCPAPEAAGGPSVFLFPPKPKDTLMISRTPEVTCVVVDVSHEDPEVKFNWYVDGVEVHNAKTKPREEQYNSTYRVVSVLTVLHQDWLNGKEYKCKVSNKALPAPIEKTISKAKGQPREPQVCTLPPSREEMTKNQVSLSCAVKGFYPSDIAVEWESNGQPENNYKTTPPVLDSDGSFFLVSKLTVDKSRWQQGNVFSCSVMHEALHNHYTQKSLSLSPGK
light: DIQLTQSPSFLSASVGDRVTITCKASQDVGSAVVWYQQKPGKAPKLLIYWASTRHTGVPSRFSGSGSGTEFTLTISSLQPEDFATYFCQQFTSYPTFGQGTKLEIKRTVAAPSVFIFPPSDEQLKSGTASVVCLLNNFYPREAKVQWKVDNALQSGNSQESVTEQDSKDSTYSLSSTLTLSKADYEKHKVYACEVTHQGLSSPVTKSFNRGEC
B5: Cross308×PDL1 (bispecific antibody, human IgG1, kappa, L234A L235A)
scFv: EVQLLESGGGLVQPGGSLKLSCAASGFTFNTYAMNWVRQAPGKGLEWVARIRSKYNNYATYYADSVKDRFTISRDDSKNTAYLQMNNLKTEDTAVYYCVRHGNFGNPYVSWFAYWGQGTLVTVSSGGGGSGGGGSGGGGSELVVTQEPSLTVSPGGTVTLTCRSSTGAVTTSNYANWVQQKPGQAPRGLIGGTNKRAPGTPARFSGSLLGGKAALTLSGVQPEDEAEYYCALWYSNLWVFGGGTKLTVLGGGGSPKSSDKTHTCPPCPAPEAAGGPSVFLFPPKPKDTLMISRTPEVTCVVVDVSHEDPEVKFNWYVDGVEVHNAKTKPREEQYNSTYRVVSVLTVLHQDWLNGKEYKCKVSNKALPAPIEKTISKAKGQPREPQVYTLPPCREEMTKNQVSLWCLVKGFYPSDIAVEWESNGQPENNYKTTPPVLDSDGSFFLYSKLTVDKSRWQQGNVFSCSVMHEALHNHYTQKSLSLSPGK
heavy: QVQLVQSGAEVKKPGASVKVSCKASGYSFTGYYMHWVRQAPGQGLEWIGRINPYNGATTYSQNFKDRATMTVDTSISTAYMELSRLRSDDTAVYYCVPTGMGYFLMDYWGQGTLVTVSSASTKGPSVFPLAPSSKSTSGGTAALGCLVKDYFPEPVTVSWNSGALTSGVHTFPAVLQSSGLYSLSSVVTVPSSSLGTQTYICNVNHKPSNTKVDKKVEPKSCDKTHTCPPCPAPEAAGGPSVFLFPPKPKDTLMISRTPEVTCVVVDVSHEDPEVKFNWYVDGVEVHNAKTKPREEQYNSTYRVVSVLTVLHQDWLNGKEYKCKVSNKALPAPIEKTISKAKGQPREPQVCTLPPSREEMTKNQVSLSCAVKGFYPSDIAVEWESNGQPENNYKTTPPVLDSDGSFFLVSKLTVDKSRWQQGNVFSCSVMHEALHNHYTQKSLSLSPGK
light: DIQLTQSPSFLSASVGDRVTITCKASQDVGSAVVWYQQKPGKAPKLLIYWASTRHTGVPSRFSGSGSGTEFTLTISSLQPEDFATYFCQQFTSYPTFGQGTKLEIKRTVAAPSVFIFPPSDEQLKSGTASVVCLLNNFYPREAKVQWKVDNALQSGNSQESVTEQDSKDSTYSLSSTLTLSKADYEKHKVYACEVTHQGLSSPVTKSFNRGEC
B6: Cross314×PDL1 (bispecific antibody, human IgG1, kappa, L234A L235A)
scFv: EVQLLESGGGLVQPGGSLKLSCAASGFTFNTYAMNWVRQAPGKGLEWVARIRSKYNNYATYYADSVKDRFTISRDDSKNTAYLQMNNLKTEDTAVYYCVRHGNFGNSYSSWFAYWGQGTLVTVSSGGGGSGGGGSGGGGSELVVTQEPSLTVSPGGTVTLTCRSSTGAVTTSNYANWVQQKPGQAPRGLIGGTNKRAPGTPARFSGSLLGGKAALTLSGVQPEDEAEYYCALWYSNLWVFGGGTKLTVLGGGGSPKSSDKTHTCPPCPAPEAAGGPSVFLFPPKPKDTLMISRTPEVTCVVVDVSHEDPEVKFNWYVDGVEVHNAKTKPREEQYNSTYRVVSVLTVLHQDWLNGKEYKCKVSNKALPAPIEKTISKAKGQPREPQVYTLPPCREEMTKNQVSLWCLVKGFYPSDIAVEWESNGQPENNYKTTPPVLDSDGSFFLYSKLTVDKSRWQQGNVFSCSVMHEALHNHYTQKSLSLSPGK
heavy: QVQLVQSGAEVKKPGASVKVSCKASGYSFTGYYMHWVRQAPGQGLEWIGRINPYNGATTYSQNFKDRATMTVDTSISTAYMELSRLRSDDTAVYYCVPTGMGYFLMDYWGQGTLVTVSSASTKGPSVFPLAPSSKSTSGGTAALGCLVKDYFPEPVTVSWNSGALTSGVHTFPAVLQSSGLYSLSSVVTVPSSSLGTQTYICNVNHKPSNTKVDKKVEPKSCDKTHTCPPCPAPEAAGGPSVFLFPPKPKDTLMISRTPEVTCVVVDVSHEDPEVKFNWYVDGVEVHNAKTKPREEQYNSTYRVVSVLTVLHQDWLNGKEYKCKVSNKALPAPIEKTISKAKGQPREPQVCTLPPSREEMTKNQVSLSCAVKGFYPSDIAVEWESNGQPENNYKTTPPVLDSDGSFFLVSKLTVDKSRWQQGNVFSCSVMHEALHNHYTQKSLSLSPGK
light: DIQLTQSPSFLSASVGDRVTITCKASQDVGSAVVWYQQKPGKAPKLLIYWASTRHTGVPSRFSGSGSGTEFTLTISSLQPEDFATYFCQQFTSYPTFGQGTKLEIKRTVAAPSVFIFPPSDEQLKSGTASVVCLLNNFYPREAKVQWKVDNALQSGNSQESVTEQDSKDSTYSLSSTLTLSKADYEKHKVYACEVTHQGLSSPVTKSFNRGEC

Columns and labels:
[1] = target: T1, PDL1 on A-375 melanoma cells, HCT-15 colorectal cancer cells and A549 lung cancer cells (UniProt Q9NZQ7 19-290, limits assumed); assay: flow cytometry, A549 cells, MFI [panel B]
T1 construct: whole, on cells
T1 sequence (Q9NZQ7 19-290 limits assumed): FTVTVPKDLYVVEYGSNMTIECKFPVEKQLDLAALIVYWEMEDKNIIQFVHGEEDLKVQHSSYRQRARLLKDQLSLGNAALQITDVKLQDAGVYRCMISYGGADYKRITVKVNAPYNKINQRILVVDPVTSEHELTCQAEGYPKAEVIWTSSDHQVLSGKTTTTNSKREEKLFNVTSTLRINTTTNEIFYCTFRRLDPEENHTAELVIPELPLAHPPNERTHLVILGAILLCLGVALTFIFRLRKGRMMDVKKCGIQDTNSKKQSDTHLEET
Experimental: (2) The tumor cells were diluted to 2×10⁶/ml with PBS and added to a 1.5 ml EP tube at a volume of 100 μl/tube, and goat serum was added thereto at 10 μl/tube. The cells were blocked at 4° C. for 30 min. The serially diluted bispecific antibodies, Cross3×Trop2, Cross303×Trop2, Cross307×Trop2, Cross308×Trop2, Cross309×Trop2, Cross310×Trop2, Cross311×Trop2, Cross312×Trop2, Cross313×Trop2, Cross314×Trop2, Cross316×Trop2, Cross317×Trop2, Cross318×Trop2, Cross323×Trop2, Cross325×Trop2, Cross326×Trop2, and Cross3×PDL1, Cross303×PDL1, Cross307×PDL1, Cross308×PDL1, Cross309×PDL1, Cross310×PDL1, Cross311×PDL1, Cross312×PDL1, Cross313×PDL1, Cross314×PDL1, Cross316×PDL1, Cross317×PDL1, Cross318×PDL1, Cross323×PDL1, Cross325×PDL1, Cross326×PDL1, and control hIgG1LALA (purchased from Bio-Tech) were added and incubated at 4° C. for 30 min. 1 ml of PBS was added to the EP tube, followed by centrifugation at 3500 rpm for 5 min at 4° C. The supernatant was discarded, and the cells were washed again with PBS. After centrifugation, the supernatant was completely discarded, and the cells were resuspended with PBS at 100 μl/tube. Alexa-647-labeled goat anti-human IgG secondary antibody (purchased from Jackson lab) was added at 1 μl/tube and incubated at 4° C. in the dark for 30 min. The cells were washed twice with PBS, and the supernatant was completely discarded after centrifugation. The cells were resuspended with PBS at 200 μl/tube and assay was performed using the flow cytometry.

PDL1 protein = target: T2, PDL1 protein (UniProt Q9NZQ7 19-238); assay: ELISA, coated PDL1 protein, OD450 [panel A]
T2 construct: Bought recombinant protein
T2 sequence (Q9NZQ7 19-238 limits assumed): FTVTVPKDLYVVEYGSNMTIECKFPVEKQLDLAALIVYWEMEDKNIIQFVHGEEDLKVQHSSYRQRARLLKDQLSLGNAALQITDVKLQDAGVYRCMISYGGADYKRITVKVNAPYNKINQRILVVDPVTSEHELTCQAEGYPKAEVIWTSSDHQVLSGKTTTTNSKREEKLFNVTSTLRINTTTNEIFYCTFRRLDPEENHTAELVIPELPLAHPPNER
Experimental: (3) PDL1 protein (purchased from Acro) was diluted to 2 μg/ml with PBS buffer, added to a 96-well plate at a volume of 100 μL/well, and placed at 4° C. overnight. The PBS buffer in the 96-well plate was aspirated, and the plate was washed 6 times with PBST (pH 7.2 PBS containing 0.10% Tween 20) buffer. Then, PBS/10% BSA was added at 200 μL/well and incubated at 37° C. for 2 h for blocking. The blocking solution was removed, and the plate was washed six times with PBST. Then, the to-be-tested bispecific antibodies serially diluted with PBST/0.05% BSA, Cross3×PDL1, Cross303×PDL1, Cross307×PDL1, Cross308×PDL1, Cross309×PDL1, Cross310×PDL1, Cross311×PDL1, Cross312×PDL1, Cross313×PDL1, Cross314×PDL1, Cross316×PDL1, Cross317×PDL1, Cross318×PDL1, Cross323×PDL1, Cross325×PDL1, Cross326×PDL1, and control IgG1LALA (purchased from Bio-Tech) were added at 100 μL/well, and incubated at 37° C. for 1 h. The reaction system was removed, and the plate was washed 6 times with PBST. Then, the cells were incubated at 37° C. for 1 h with HRP (horseradish peroxidase)-labeled anti-human secondary antibody (Fab specific) (purchased from Sigma) serially diluted with PBST/0.05% BSA at 100 μL/well. After the plate was washed six times with PBST, TMB (tetramethylbenzidine) was added at 80 μL/well and incubated at room temperature for 3 min. 4 M sulfuric acid was added at 80 μL/well to terminate the reaction. The absorbance was read at 450 nm using a microplate reader.

Binder	EC50 (read off the curve) [1] [µg/mL]	EC50 (read off the curve) (PDL1 protein) [µg/mL]
B1	~1	~0.2
B2	~1	~0.2
B3	~2	~0.2
B4	~1	~0.2
B5	~1	~0.2
B6	~1	~0.2
